According to article PMC6008332, “Nuclear PTEN safeguards pre-mRNA splicing to link Golgi apparatus for its tumor suppressive role” (Nature Communications, 2018):

Key:
Conditions in all cases: both partners purified
[1] = molecular target: T1, GST-tagged U2AF2 on the human proteome microarray (human, UniProt P26368 1-475); experiment: peptide or protein array; human proteome microarray of 20,240 N-terminally GST-tagged proteins probed with 5 μg/5 ml Biotin-labeled His-PTEN, 1 h room temperature; Cy5-conjugated streptavidin; cutoff SNR ≥3 and fold change ≥5
T1 construct: U2AF2 spotted on the human proteome microarray; also called U2AF2 (HPM); source: bought: human proteome microarray (ProtoArray Human Protein Microarray, Wayen Biotechnologies); not shown: GST, N-terminal, kept

[2] = molecular target: T2, GST-tagged APC3 (CDC27) on the human proteome microarray (human, UniProt P30260 1-824); experiment: as above
T2 construct: APC3 (CDC27) spotted on the human proteome microarray; source: bought: human proteome microarray (ProtoArray Human Protein Microarray, Wayen Biotechnologies); not shown: GST, N-terminal, kept

[3] = molecular target: T3, GST-tagged HNRNPK on the human proteome microarray (human, UniProt P61978 1-463); experiment: as above
T3 construct: HNRNPK spotted on the human proteome microarray; also called HNRNPK (HPM); source: bought: human proteome microarray (ProtoArray Human Protein Microarray, Wayen Biotechnologies); not shown: GST, N-terminal, kept

[4] = molecular target: T4, GST-tagged HNRNPU on the human proteome microarray (human, UniProt Q00839 1-825); experiment: as above
T4 construct: HNRNPU spotted on the human proteome microarray; also called HNRNPU (HPM); source: bought: human proteome microarray (ProtoArray Human Protein Microarray, Wayen Biotechnologies); not shown: GST, N-terminal, kept

[5] = molecular target: T5, GST-tagged USP7 (HAUSP7) on the human proteome microarray (human, UniProt Q93009 1-1102); experiment: as above
T5 construct: USP7 spotted on the human proteome microarray; source: bought: human proteome microarray (ProtoArray Human Protein Microarray, Wayen Biotechnologies); not shown: GST, N-terminal, kept

[6] = molecular target: T6, GST-tagged SF3B4 on the human proteome microarray (human, UniProt Q15427 1-424); experiment: as above
T6 construct: SF3B4 spotted on the human proteome microarray; also called SF3B4 (HPM); source: bought: human proteome microarray (ProtoArray Human Protein Microarray, Wayen Biotechnologies); not shown: GST, N-terminal, kept
T6 sequence (looked up): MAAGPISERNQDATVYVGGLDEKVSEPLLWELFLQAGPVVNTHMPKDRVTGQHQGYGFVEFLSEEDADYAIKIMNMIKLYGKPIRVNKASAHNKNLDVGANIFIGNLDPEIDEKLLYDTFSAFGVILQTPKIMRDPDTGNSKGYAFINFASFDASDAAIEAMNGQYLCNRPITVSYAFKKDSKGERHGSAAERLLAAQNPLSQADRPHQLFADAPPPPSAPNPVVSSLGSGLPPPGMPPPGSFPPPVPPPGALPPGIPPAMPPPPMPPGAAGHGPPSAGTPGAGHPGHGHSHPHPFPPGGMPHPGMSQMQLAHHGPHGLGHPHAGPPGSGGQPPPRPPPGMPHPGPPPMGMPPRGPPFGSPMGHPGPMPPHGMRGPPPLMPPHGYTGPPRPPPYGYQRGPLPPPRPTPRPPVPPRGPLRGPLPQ

[7] = molecular target: T7, His-tagged U2AF2 (UniProt P26368 1-475); experiment: pull-down; 15 μg His-tagged U2AF2 mixed with 4 μg GST or GST-PTEN bound to glutathione-sepharose beads in 0.5 ml binding buffer, overnight at 4 °C; immunoblot for His and GST
T7 construct: Recombinant full-length U2AF2; also called His-U2AF2; source: E. coli (pET-28a), purified (nickel chelating, ion exchange, gel filtration)

Measured: binding result

B1: Biotin-labeled His-PTEN (natural protein)
chain: not shown
modifications: biotin (sites not given)
notes: Recombinant full-length PTEN; also called biotinylated PTEN protein; PTEN−biotin conjugates; source: E. coli (pET-28a), purified (nickel chelating, ion exchange, gel filtration), labeled with biotin
not listed: [7]
binds: all other assays above

B2: GST-tagged PTEN (natural protein)
chain: not shown
notes: PTEN CDS inserted into the pEGX-4T-3 vector (so in the source); also called GST-PTEN
binds: [7]
